The source of these data is article PMC4338369.

The target in this experiment is alkyl hydroperoxide reductase subunit C (peroxiredoxin) from Amphibacillus xylanus (Amphibacillus xylanus) (UniProt K0J4Q8). The experiment can be described thus: SPR. (In general: Surface plasmon resonance follows binding to a sensor surface in real time, without labels.)

The substance “NADH oxidase from Amphibacillus xylanus (enzyme)” displayed a kon of 29 M⁻¹ s⁻¹.

A word on the kon: it is the second-order rate constant of association. A high value points to fast association.
